This assay has as its target T1, TNF (125I-TNF) (human, UniProt P01375 77-233, limits assumed, radioiodinated (125I) where used as labeled ligand).
T1 construct: It may be the same FLAG-TNFα as m1; also called 125I-labeled TNF
Put plainly: TNF binding assay on product of transfected COS-7 cells.

T1 sequence (P01375 77-233 limits assumed): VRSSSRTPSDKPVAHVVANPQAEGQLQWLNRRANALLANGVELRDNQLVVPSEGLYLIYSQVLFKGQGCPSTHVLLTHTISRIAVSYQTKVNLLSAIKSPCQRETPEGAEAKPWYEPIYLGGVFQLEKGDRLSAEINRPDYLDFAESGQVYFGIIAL

B1: soluble huTNF-RΔ142 (receptor)
chain: LPAQVAFTPYAPEPGSTCRLREYYDQTAQMCCSKCSPGQHAKVFCTKTSDTVCDSCEDSTYTQLWNWVPECLSCGSRCSSDQVETQACTREQNRICTCRPGWYCALSKQEGCRLCAPLRKCRPGFGVARPGTETSDVVCKPC
notes: Transfected into COS-7 cells; also called huTNF-R?142; product of psolTNFRΔ142/CAVNOT
On to B1, for which the binding result is “no binding”.

The values above are taken from patent publication US20030082736A1 (IMMUNEX, published 2003).
